We go through four molecules from PMC8061694, “Ectopic positioning of the cell division plane is associated with single amino acid substitutions in the FtsZ-recruiting SsgB in Streptomyces” (Open Biology, 2021).

The labels stand for the following.
B1: Streptomyces coelicolor FtsZ, C-terminal His-tag fusion (natural protein, UniProt P45500 1-399, looked up)
chain: MAAPQNYLAVIKVIGVGGGGVNAINRMIEVGLKGVEFIAINTDAQALLMSDADVKLDVGRELTRGLGAGANPAVGRKAAEDHREEIEEVLKGADMVFVTAGEGGGTGTGGAPVVANIARSLGALTIGVVTRPFTFEGRRRANQAEDGIAELREEVDTLIVIPNDRLLSISDRQVSVLDAFKSADQVLLSGVQGITDLITTPGLINLDFADVKSVMSEAGSALMGIGSARGDDRAVAAAEMAISSPLLEASIDGARGVLLSISGGSDLGLFEINEAAQLVSEAAHPEANIIFGAVIDDALGDEVRVTVIAAGFDGGQPPSKRDNVLGSSSAKREEPTPARPSESRPSFGSLGSVKPKEEPEPAPVPEPVADLPVSPPPVPPSRTYSDSAAEELDVPDFLK
notes: FtsZ of Streptomyces coelicolor, codon-optimised ftsZ cloned into pET28a; Forms polymers with GTP; source: E. coli Rosetta 2 (DE3) pLysS, purified

Data set [1] deals with the molecule itself. In words: co-sedimentation; co-pelleting assay: purified FtsZ with or without equimolar SsgB or its mutants, 15 µM final; pre-spun 50 k r.p.m. 30 min; 2 mM MgCl2 and GTP added, 10 min at 30°C; centrifuged 65 k r.p.m. at 20°C for 30 min; supernatants and pellets on SDS-PAGE.
Data set [2] addresses Streptomyces coelicolor SsgB, wild type, His6-tagged (Streptomyces coelicolor) (UniProt Q9L268). Briefly: crystal structure; tetragonal crystals, sitting-drop vapour diffusion at 18°C; 0.2 M sodium chloride, 0.1 M sodium/potassium phosphate pH 6.2, 50% PEG200; 2.1 Å; eight molecules per asymmetric unit.
The target of data set [3] is B1. Briefly: co-sedimentation; co-pelleting assay: purified FtsZ with or without equimolar SsgB or its mutants, 15 µM final; pre-spun 50 k r.p.m. 30 min; 2 mM MgCl2 and GTP added, 10 min at 30°C; centrifuged 65 k r.p.m. at 20°C for 30 min; supernatants and pellets on SDS-PAGE. Particulars: both partners purified.

In the case of B1, the binding result in data set [1] is “binds”.

B2: Streptomyces coelicolor SsgB, wild type, His6-tagged (natural protein, UniProt Q9L268 1-137, looked up)
chain: MNTTVSCELHLRLVVSSESSLPVPAGLRYDTADPYAVHATFHTGAEETVEWVFARDLLAEGLHRPTGTGDVRVWPSRSHGQGVVCIALSSPEGEALLEAPARALESFLKRTDAAVPPGTEHRHFDLDQELSHILAES
notes: SsgB of Streptomyces coelicolor, entire coding region, 137 aa native polypeptide; expressed from pET28a as a 157 aa fusion protein; Trimer in the crystal, mainly monomer by SEC; The last 13 residues are not modelled in the structure; also called ScSsgB; wild-type SsgB; source: E. coli Rosetta 2 (DE3) pLysS, purified
As usually defined, the stoichiometry N is a count of units in the complex or per binding partner. Turning to B2, in data set [2], the stoichiometry N turned out to be 3. In addition, the binding result in data set [3] is on record as “binds”.

B3: SsgB-E120G, His6-tagged (natural protein, Streptomyces coelicolor, UniProt Q9L268 1-137, looked up)
chain: MNTTVSCELHLRLVVSSESSLPVPAGLRYDTADPYAVHATFHTGAEETVEWVFARDLLAEGLHRPTGTGDVRVWPSRSHGQGVVCIALSSPEGEALLEAPARALESFLKRTDAAVPPGTGHRHFDLDQELSHILAES
notes: SsgB of Streptomyces coelicolor, entire coding region (137 aa), point mutant E120G, expressed in the same way as wild type; also called SsgB variant E120G; source: E. coli Rosetta 2 (DE3) pLysS, purified
B3: the binding result in data set [3] is “binds”.

B4: SsgB E120A, His6-tagged (natural protein, Streptomyces coelicolor, UniProt Q9L268 1-137, looked up)
chain: MNTTVSCELHLRLVVSSESSLPVPAGLRYDTADPYAVHATFHTGAEETVEWVFARDLLAEGLHRPTGTGDVRVWPSRSHGQGVVCIALSSPEGEALLEAPARALESFLKRTDAAVPPGTAHRHFDLDQELSHILAES
notes: SsgB of Streptomyces coelicolor, entire coding region (137 aa), point mutant E120A, expressed in the same way as wild type; also called SsgB variant E120A; source: E. coli Rosetta 2 (DE3) pLysS, purified
As for B4, the binding result in data set [3] is on record as “binds”.
